Measurements taken from patent publication US20130302329A1, “DIAGNOSTIC TESTS FOR IMMUNE REACTIVITY WITH HUMAN ENDOTHELIAL CELL GROWTH FACTOR” (TRUSTEES OF BOSTON UNIVERSITY, priority 2010, published 2013).

Key:
[1] = tested on: PBMC; experiment: Retest of peptides with the patient's own PBMC: IFN-γ secretion; assay type: cell-based, human; conditions: PBMC of patient LA1, second assay
Excerpt: Only two peptide sets (set 33 and set 40) induced proliferation responses that were >2 times background (FIG. 2). Enough cells remained for retesting the first set together and the second peptide set individually. In the second assay, only one peptide induced proliferation and IFN-γ secretion that were >2 times background. This peptide (^340LGRFERMLAAQGGVDPG^355) (SEQ ID NO:1), 1 of the 16 identified by only one of the three search programs, originated from the source protein platelet-derived endothelial cell growth factor (ECGF), also called thymidine phosphorylase or gliostatin.

[2] = tested on: PBMC; experiment: Testing of subjects' PBMC with commercially available recombinant ECGF; assay type: cell-based, human
Description: Initially, subjects' PBMC were tested using commercially available recombinant ECGF. […] Consequently, three HLA-DR T-cell epitope prediction algorithms (Wang et al., PLoS Computat. Biol. e1000048 (2008)), were used to identify seven ECGF peptides, including the one peptide identified in the initial patients' sample (ECGF340-365), that were predicted to be presented by the HLA-DR molecules associated with antibiotic-refractory Lyme arthritis. These peptides were synthesized and tested for autoreactivity via IFN-γ ELISPOT assays using patient and control PBMC (FIG. 3). Based upon the values obtained in 14 healthy control subjects (FIG. 3), a positive T cell response was defined as a stimulation index (no. of spots induced by an ECGF peptide /no. of spots in no antigen controls) 3 standard deviation (SD) above the mean of healthy controls, which characteristically gave >40 spot forming units (SFU)/10^6 PBMC and a stimulation index of >8.

**Q.** How did the “IFN-γ secretion relative to background” value [1] turn out when “LGRFERMLAAQGVDPG (listed as Homo sapiens) [SEQ ID NO:1, ECGF peptide (index case), HLA-DR-presented, identified in LA1 synovial sample]” was run?
**A.** The value was > 2 times background.

B1: ECGF: commercially available recombinant human platelet-derived endothelial cell growth factor, also called thymidine phosphorylase or gliostatin (protein, UniProt P19971 11-482, looked up)
Thymidine phosphorylase: APPAPGDFSGEGSQGLPDPSPEPKQLPELIRMKRDGGRLSEADIRGFVAAVVNGSAQGAQIGAMLMAIRLRGMDLEETSVLTQALAQSGQQLEWPEAWRQQLVDKHSTGGVGDKVSLVLAPALAACGCKVPMISGRGLGHTGGTLDKLESIPGFNVIQSPEQMQVLLDQAGCCIVGQSEQLVPADGILYAARDVTATVDSLPLITASILSKKLVEGLSALVVDVKFGGAAVFPNQEQARELAKTLVGVGASLGLRVAAALTAMDKPLGRCVGHALEVEEALLCMDGAGPPDLRDLVTTLGGALLWLSGHAGTQAQGAARVAAALDDGSALGRFERMLAAQGVDPGLARALCSGSPAERRQLLPRAREQEELLAPADGTVELVRALPLALVLHELGAGRSRAGEPLRLGVGAELLVDVGQRLRRGTPWLRVHRDGPALSGPQSRALQEALVLSDRAPFAAPSPFAELVLPPQQ
**Q.** For B1, which “effect on thymidine incorporation” value ([2]; actively dividing cells) is on record?
**A.** The value was “inhibited thymidine incorporation into actively dividing cells”.

**Q.** And the “IFN-γ secretion by PBMC” value ([2]; subjects' PBMC)?
**A.** The value was “non-specifically induced PBMC to secrete IFN-γ”.
